Test results taken from IntAct's records for PubMed 16616186.

B1: Rho guanine nucleotide exchange factor 9 (Rattus norvegicus (Rat)), Q9QX73 (parent)
chain: MQWIRGGSGMLITGDSIVSAEAVWDHVTMANRGVAFKAGDVIKVLDASNKDWWWGQIDDEEGWFPASFVRLWVNQEDGVEEGPSDVQNGHLDPNSDCLCLGRPLQNRDQMRANVINEIMSTERHYIKHLKDICEGYLKQCRKRRDMFSDEQLKVIFGNIEDIYRFQMGFVRDLEKQYNNDDPHLSEIGPCFLEHQDGFWIYSEYCNNHLDACMELSKLMKDSRYQHFFEACRLLQQMIDIAIDGFLLTPVQKICKYPLQLAELLKYTAQDHSDYRYVAAALAVMRNVTQQINERKRRLENIDKIAQWQASVLDWEGDDILDRSSELIYTGEMAWIYQPYGRNQQRVFFLFDHQMVLCKKDLIRRDILYYKGRIDMDKYEVIDIEDGRDDDFNVSMKNAFKLHNKETEEVHLFFAKKLEEKIRWLRAFREERKMVQEDEKIGFEISENQKRQAAMTVRKASKQKGRVGEEENQSLELKRACEVLQRLWSPGKKS
partner: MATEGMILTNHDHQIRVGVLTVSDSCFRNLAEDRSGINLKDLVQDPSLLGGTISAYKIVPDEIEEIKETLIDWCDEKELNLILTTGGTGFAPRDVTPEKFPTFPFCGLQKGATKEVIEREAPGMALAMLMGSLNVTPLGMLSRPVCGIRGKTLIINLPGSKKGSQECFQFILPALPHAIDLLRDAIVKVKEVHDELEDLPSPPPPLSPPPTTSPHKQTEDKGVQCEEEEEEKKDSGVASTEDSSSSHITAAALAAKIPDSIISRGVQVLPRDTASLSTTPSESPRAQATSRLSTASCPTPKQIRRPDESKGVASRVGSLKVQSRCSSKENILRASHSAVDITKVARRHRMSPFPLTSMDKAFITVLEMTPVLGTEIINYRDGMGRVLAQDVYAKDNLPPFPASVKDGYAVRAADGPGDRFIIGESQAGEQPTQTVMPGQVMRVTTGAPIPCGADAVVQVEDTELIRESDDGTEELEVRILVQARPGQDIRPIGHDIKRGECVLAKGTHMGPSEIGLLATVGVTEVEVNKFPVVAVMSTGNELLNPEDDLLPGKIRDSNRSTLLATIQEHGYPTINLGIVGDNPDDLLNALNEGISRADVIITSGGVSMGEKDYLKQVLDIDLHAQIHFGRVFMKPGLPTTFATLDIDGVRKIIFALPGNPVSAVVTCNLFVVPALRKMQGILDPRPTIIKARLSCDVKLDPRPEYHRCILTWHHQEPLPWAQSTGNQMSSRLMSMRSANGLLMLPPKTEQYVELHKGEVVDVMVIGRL

Variants of: B1
Settings: with geph_rat Gphn

Row | effect of a mutation on the interaction | Variant
1 | disrupting interaction | MQWIRGGSGMLITGDSIVSAEAVWDHVTMANRGVAFKAGDVIKVLDASNKDWWWGQIDDEEGWFPASFVRLWVNQEDGVEEGPSDVQNGHLDPNSDCLCLGRPLQNRDQMAANVINEIMSTERHYIKHLKDICEGYLKQCRKRRDMFSDEQLKVIFGNIEDIYRFQMGFVRDLEKQYNNDDPHLSEIGPCFLEHQDGFWIYSEYCNNHLDACMELSKLMKDSRYQHFFEACRLLQQMIDIAIDGFLLTPVQKICKYPLQLAELLKYTAQDHSDYRYVAAALAVMRNVTQQINERKRRLENIDKIAQWQASVLDWEGDDILDRSSELIYTGEMAWIYQPYGRNQQRVFFLFDHQMVLCKKDLIRRDILYYKGRIDMDKYEVIDIEDGRDDDFNVSMKNAFKLHNKETEEVHLFFAKKLEEKIRWLRAFREERKMVQEDEKIGFEISENQKRQAAMTVRKASKQKGRVGEEENQSLELKRACEVLQRLWSPGKKS [R111A]
2 | with no effect | MQWIRGGSGMLITGDSIVSAEAVWDHVTMANRGVAFKAGDVIKVLDASNKDWWWGQIDDEEGWFPASFVRLWVNQEDGVEEGPSDVQNGHLDPNSDCLCLGRPLQNAAQMRANVINAIMSTERHYIKHLKDICEGYLKQCRKRRDMFSDEQLKVIFGNIEDIYRFQMGFVRDLEKQYNNDDPHLSEIGPCFLEHQDGFWIYSEYCNNHLDACMELSKLMKDSRYQHFFEACRLLQQMIDIAIDGFLLTPVQKICKYPLQLAELLKYTAQDHSDYRYVAAALAVMRNVTQQINERKRRLENIDKIAQWQASVLDWEGDDILDRSSELIYTGEMAWIYQPYGRNQQRVFFLFDHQMVLCKKDLIRRDILYYKGRIDMDKYEVIDIEDGRDDDFNVSMKNAFKLHNKETEEVHLFFAKKLEEKIRWLRAFREERKMVQEDEKIGFEISENQKRQAAMTVRKASKQKGRVGEEENQSLELKRACEVLQRLWSPGKKS [R107A;D108A;E117A]

Variants of: B1
Settings: with geph_rat Gphn
Remark: another data set of the same source

Row | effect of a mutation on the interaction | Variant
3 | disrupting interaction strength | MQWIRGGSGMLITGDSIVSAEAVWDHVTMANRGVAFKAGDVIKVLDASNKDWWWGQIDDEEGWFPASFVRLWVNQEDGVEEGPSDVQNGHLDPNSDCLCLGRPLQNAAQMRANVINAIMSTERHYIKHLKDICEGYLKQCRKRRDMFSDEQLKVIFGNIEDIYRFQMGFVRDLEKQYNNDDPHLSEIGPCFLEHQDGFWIYSEYCNNHLDACMELSKLMKDSRYQHFFEACRLLQQMIDIAIDGFLLTPVQKICKYPLQLAELLKYTAQDHSDYRYVAAALAVMRNVTQQINERKRRLENIDKIAQWQASVLDWEGDDILDRSSELIYTGEMAWIYQPYGRNQQRVFFLFDHQMVLCKKDLIRRDILYYKGRIDMDKYEVIDIEDGRDDDFNVSMKNAFKLHNKETEEVHLFFAKKLEEKIRWLRAFREERKMVQEDEKIGFEISENQKRQAAMTVRKASKQKGRVGEEENQSLELKRACEVLQRLWSPGKKS [R107A;D108A;E117A]
